{"source": "patent US20080317746A1", "about": "(MICROMET, published 2008)", "binders": {"B1": {"name": "mAb202 (commercially available from R&D Systems) (antibody, V domains shown)", "VH": "DVRLVESGGGLVKPGGSLKLSCAAYGFTFSSYTLAWVRQTPEKRLEWVAAIDSSSYTYSPDTVRGRFTISRDNAKNTLYLQMSSLKSEDTAMYYCTRDSNWDALDYWGQGTSVIVSS", "VL": "DIVMTQSQKFMSTSVGDRVSVTCKASQNVGTNVGWYQQKPGQSPKALIYSASFRYSGVPDRFTGSGSGTDFSLTISNVKSEDLAEYFCQQYYTYPYTFGGGTKLEIK", "notes": "Mouse monoclonal antibody; also called original mAb; parental mAb202"}, "B2": {"name": "Anti-IL2 (humanized anti-IL2 IgG1 antibody) (antibody, V domains shown)", "VH": "EVQLVESGGGLVQPGGSLRLSCAASGFTFSSYTLAWVRQAPGKGLEWVAAIDSSSYTYSPDTVRGRFTISRDNAKNSLYLQMNSLRAEDTAVYYCARDSNWDALDYWGQGTTVTVSS", "VL": "DIQMTQSPSSLSASVGDRVTITCKASQNVGTNVGWYQQKPGKAPKALIYSASFRYSGVPSRFSGSGSGTDFTLTISSLQPEDFATYYCQQYYTYPYTFGGGTKVEIKR", "notes": "IgG1; Its VL carries KAPKA in framework 2"}, "B3": {"name": "HMH + hHC (VL with human frameworks 1 and 3, mouse framework 2) (antibody, V domains shown)", "VH": "B2 VH", "VL": "DIQMTQSPSSLSASVGDRVTITCKASQNVGTNVGWYQQKPGQSPKALIYSASFRYSGVPSRFSGSGSGTDFTLTISSLQPEDFATYYCQQYYTYPYTFGGGTKLEIK", "notes": "Human IgG1 and human Ckappa"}, "B4": {"name": "cLC + hHC (chimeric light chain with humanized heavy chain) (antibody, human IgG1, V domains shown)", "VH": "B2 VH", "VL": "B1 VL", "notes": "Human IgG1 C1, C2, C3 and human Ckappa; Tested as 293 cell supernatant; also called cLH+hHC"}, "B5": {"name": "MHM + hHC (VL with human framework 2, mouse frameworks 1 and 3) (antibody, human IgG1, V domains shown)", "VH": "B2 VH", "VL": "B1 VL with Q42K, S43A, A46L", "notes": "Human IgG1 and human Ckappa"}, "B6": {"name": "HMM + hHC (VL with human framework 1, mouse frameworks 2 and 3) (antibody, V domains shown)", "VH": "B2 VH", "VL": "B1 VL with V3Q, Q8P, K9S, F10S, M11L, T13A, S20T, V21I", "notes": "Human IgG1 and human Ckappa"}, "B7": {"name": "hLC + hHC (humanized light chain with humanized heavy chain) (antibody, human IgG1, V domains shown)", "VH": "B2 VH", "VL": "B3 VL with Q42K, S43A, A46L, L104V", "notes": "Human IgG1 C1, C2, C3 and human Ckappa; Tested as 293 cell supernatant; also called hLH+hHC"}, "B8": {"name": "hLC_KAPKA + hHC (antibody, V domains shown)", "VH": "B2 VH", "VL": "B3 VL with Q42K, S43A, L104V", "notes": "Human IgG1 and human Ckappa"}, "B9": {"name": "MMH + hHC (VL with human framework 3, mouse frameworks 1 and 2) (antibody, V domains shown)", "VH": "B2 VH", "VL": "B3 VL with Q3V, P8Q, S9K, S10F, L11M, A13T, T20S, I21V", "notes": "Human IgG1 and human Ckappa"}}, "key": {"[1]": {"target": "T1, human interleukin-2 (hIL2) (human, UniProt P60568 21-153)", "T1 construct": "mature; The two home-made supplies carry a C-terminal hexahistidine tag, and the E. coli one also an N-terminal Met; also called recombinant human hIL2; hIL2 antigen", "T1 sequence (P60568 21-153)": "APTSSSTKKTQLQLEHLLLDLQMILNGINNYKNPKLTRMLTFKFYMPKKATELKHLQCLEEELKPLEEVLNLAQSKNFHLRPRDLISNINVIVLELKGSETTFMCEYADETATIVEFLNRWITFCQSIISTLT", "assay": "FACS on NKL cells loaded with recombinant hIL2"}, "[2]": {"target": "T2, human IL2 receptor on NKL cells (human, UniProt P01589 22-272; P14784 27-551; P31785 23-369)", "T2 construct": "whole, on cells; also called hIL2 receptor; IL2 receptor component(s)", "T2 sequence (looked up) 1": "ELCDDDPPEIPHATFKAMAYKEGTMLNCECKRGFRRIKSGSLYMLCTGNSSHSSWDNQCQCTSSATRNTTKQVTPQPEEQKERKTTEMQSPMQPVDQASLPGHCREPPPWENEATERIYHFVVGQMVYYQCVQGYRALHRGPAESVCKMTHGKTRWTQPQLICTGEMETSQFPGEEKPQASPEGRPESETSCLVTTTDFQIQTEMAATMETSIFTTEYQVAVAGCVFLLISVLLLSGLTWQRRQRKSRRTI", "T2 sequence (looked up) 2": "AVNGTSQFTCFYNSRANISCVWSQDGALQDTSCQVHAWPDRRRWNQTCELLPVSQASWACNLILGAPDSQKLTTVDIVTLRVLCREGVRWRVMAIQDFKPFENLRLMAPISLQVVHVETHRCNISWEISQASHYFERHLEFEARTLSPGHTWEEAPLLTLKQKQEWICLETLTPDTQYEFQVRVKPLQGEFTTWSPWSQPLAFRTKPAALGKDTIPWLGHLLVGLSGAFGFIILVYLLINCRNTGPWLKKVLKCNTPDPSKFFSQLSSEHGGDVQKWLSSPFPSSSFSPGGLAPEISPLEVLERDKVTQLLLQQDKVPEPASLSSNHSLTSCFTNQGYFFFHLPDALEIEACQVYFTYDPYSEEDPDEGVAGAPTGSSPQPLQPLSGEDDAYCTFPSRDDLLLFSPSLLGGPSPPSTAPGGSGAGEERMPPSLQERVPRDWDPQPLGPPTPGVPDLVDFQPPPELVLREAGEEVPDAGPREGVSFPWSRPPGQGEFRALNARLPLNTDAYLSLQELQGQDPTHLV", "T2 sequence (looked up) 3": "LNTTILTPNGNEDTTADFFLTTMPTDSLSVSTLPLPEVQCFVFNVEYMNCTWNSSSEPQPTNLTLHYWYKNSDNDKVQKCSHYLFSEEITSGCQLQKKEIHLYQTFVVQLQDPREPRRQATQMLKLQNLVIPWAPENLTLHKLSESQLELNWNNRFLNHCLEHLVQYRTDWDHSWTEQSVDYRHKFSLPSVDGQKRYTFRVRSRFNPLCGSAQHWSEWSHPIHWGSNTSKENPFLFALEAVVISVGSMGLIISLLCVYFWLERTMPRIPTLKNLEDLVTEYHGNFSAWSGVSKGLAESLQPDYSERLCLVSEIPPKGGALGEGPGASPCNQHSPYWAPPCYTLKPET", "assay": "FACS on hIL2-deprived NKL cells without hIL2; fluorescence-labeled goat anti-human IgG detection"}, "[3]": {"target": "T1, human interleukin-2 (hIL2)", "assay": "BiaCore, format not described"}, "[4]": {"target": "T1, human interleukin-2 (hIL2)", "assay": "Cell Surface (binding to cell surface-associated hIL2), method not described; Cell Surface, not BiaCore"}, "[5]": {"target": "T1, human interleukin-2 (hIL2)", "assay": "cell-based or functional assay"}, "[6]": {"target": "T1, human interleukin-2 (hIL2)", "assay": "cell-based or functional assay", "remark": "listed apart in the source"}, "[7]": {"target": "T3, Proleukin (formulated recombinant hIL2, expressed in E. coli), PEG-biotinylated (human, UniProt P60568 22-153, PEG-biotinylated (site not stated))", "T3 construct": "also called PEG-biotinylated Proleukin; hIL2 antigen", "T3 sequence (P60568 other isoform, or with tags, fused parts or gaps limits assumed)": "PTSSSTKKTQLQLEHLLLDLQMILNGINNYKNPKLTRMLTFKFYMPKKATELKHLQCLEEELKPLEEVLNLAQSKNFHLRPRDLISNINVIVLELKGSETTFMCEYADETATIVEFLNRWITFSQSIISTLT", "assay": "ELISA: PEG-biotinylated Proleukin on streptavidin plate, 293 cell supernatant antibody, anti-human IgG-HRP, ABTS, absorbance at 405 nm"}, "[8]": {"target": "T3, Proleukin (formulated recombinant hIL2, …)", "assay": "ELISA: PEG-biotinylated Proleukin on streptavidin plate, 293 cell supernatant antibody, anti-human IgG-HRP, ABTS, absorbance at 405 nm", "remark": "listed apart in the source"}, "[9]": {"target": "T3, Proleukin (formulated recombinant hIL2, …)", "assay": "ELISA: PEG-biotinylated Proleukin on streptavidin plate, 293 cell supernatant antibody, anti-human IgG-HRP, ABTS, absorbance at 405 nm", "remark": "listed apart in the source"}}, "note": "Where a chain is given by its changes, count along the chain named. Read-outs that look alike come from different tables or passages of the source.", "data": [{"binder": "B1", "values": [{"measurement": "binding result", "setting": "[1]", "result": "binds"}]}, {"binder": "B2", "values": [{"measurement": "binding result", "setting": "[2]", "result": "no binding"}, {"measurement": "Kd", "setting": "[3]", "result": 680, "unit": "pM"}, {"measurement": "Kd", "setting": "[4]", "result": 2500, "unit": "pM"}, {"measurement": "IC50, IL2-dependent proliferation of primary human NK cells (donor shown)", "setting": "[5]", "result": "~300", "unit": "pM"}, {"measurement": "IC50 of IL2-dependent CD124 cell surface expression on CTLL-2 cells", "setting": "[5]", "result": "~330", "unit": "pM"}, {"measurement": "IC50, IFN-gamma production by Human NK Cells", "setting": "[6]", "result": 130, "unit": "pM"}, {"measurement": "IC50, Proliferation of Human Primary NK Cells", "setting": "[6]", "result": 100, "unit": "pM"}]}, {"binder": "B3", "values": [{"measurement": "EC50 (read off the curve)", "setting": "[7]", "result": "~0.06", "unit": "µg/mL"}]}, {"binder": "B4", "values": [{"measurement": "EC50 (read off the curve)", "setting": "[8]", "result": "~0.1", "unit": "µg/mL"}]}, {"binder": "B5", "values": [{"measurement": "EC50 (read off the curve)", "setting": "[7]", "result": "~0.06", "unit": "µg/mL"}]}, {"binder": "B6", "values": [{"measurement": "EC50 (read off the curve)", "setting": "[7]", "result": "~0.06", "unit": "µg/mL"}]}, {"binder": "B7", "values": [{"measurement": "EC50 (read off the curve)", "setting": "[8]", "result": "~0.2", "unit": "µg/mL"}]}, {"binder": "B8", "values": [{"measurement": "EC50 (read off the curve)", "setting": "[9]", "result": "~0.05", "unit": "µg/mL"}]}, {"binder": "B9", "values": [{"measurement": "EC50 (read off the curve)", "setting": "[7]", "result": "~0.06", "unit": "µg/mL"}]}]}
